Test results reported in the supplement of paper PMC10065799, “High-throughput profiling of sequence recognition by tyrosine kinases and SH2 domains using bacterial peptide display” (eLife, 2023).
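For SH2 binding enrichment of the phosphorylated peptide, bacterial display in this document: peptide library displayed on the E. coli surface as eCPX fusions, selected cells deep-sequenced, score is each peptide's frequency after selection divided by its frequency in the input.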
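For phosphorylation enrichment, bacterial display in this document: 11-residue human phosphosite peptides and single-mutation variants displayed on the E. coli surface, counted by deep sequencing, each peptide's frequency after selection divided by its frequency in the unselected input library; frequency after pTyr selection over input frequency; kinase dosed for 20-30% of maximal phosphorylation in three min.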

The sequences below were run against c-Src SH2 (assay: SH2 binding enrichment of the phosphorylated peptide, bacterial display (enrichment ratio); higher = better substrate or ligand; peptides without Tyr show the background).
GFPVHYTDVSN [DNMT3B_Y815] was tested, and the SH2 binding enrichment was 3.96. RRGTRYMSSRP [RPL21_Y13_F15S] was tested, and the SH2 binding enrichment was 0.489. Sequence VIECSYTSADG [DHCR7_Y382] has an SH2 binding enrichment of 1.63. Work on SARFHYLMAEK [LDHB_Y173_R172H] yielded an SH2 binding enrichment of 0.455. EEESCYILHSS [PATJ_Y783] gave an SH2 binding enrichment of 0.744. In the case of QSKGIYFVQLE [MGAT4B_Y262_YF], the SH2 binding enrichment is reported as 0.658. PMQMPYDSRWE [PDGFRA_Y582_L580M] showed an SH2 binding enrichment of 0.601. FQEKGYNKELR [CHRND_Y38] was tested, and the SH2 binding enrichment was 0.485. In the case of KAIMTYVPSFY [ACTN4_Y260_S262P], the SH2 binding enrichment is reported as 1.15. KVNKIYYPDFI [LIG3_Y767] was tested, and the SH2 binding enrichment was 0.636. For FSDPSYVKQME [CDC5L_Y464_YF], the SH2 binding enrichment was 0.518. ADFPDCKFRPR [SOX11_Y116_Y116C_YF] gave an SH2 binding enrichment of 1.19. For ETPSEYLEIVR [TMEM130_Y412], the SH2 binding enrichment was 0.443. In the case of FPLELYERVRM [PRKCG_Y312_YF], the SH2 binding enrichment is reported as 0.485. FDFKKYGKGLR [ZNF445_Y433_YF] was tested, and the SH2 binding enrichment was 1.14. Sequence WISNRSLDFSS [PRPH2_Y184_Y184S] has an SH2 binding enrichment of 0.419. TFWKKYRTFWK [CCDC70_Y125] gave an SH2 binding enrichment of 0.517. LQTYHYHGHSM [PDHA1_Y289_R288H] was tested, and the SH2 binding enrichment was 1.29. With DVMDFYKTLRG [NR3C1_Y30] the SH2 binding enrichment was 0.47. In the case of AEKPKYQINNI [TJP1_Y1602], the SH2 binding enrichment is reported as 0.508. Work on HSFQCYGRNEA [ENTPD3_Y262] yielded an SH2 binding enrichment of 0.529. SSVAGYACLAF [MVD_Y131_A128V_YF] gave an SH2 binding enrichment of 1.76. Sequence MTYMFYRENLR [NLRP14_Y443_V441M] has an SH2 binding enrichment of 0.721. SPYAVYLFFTF [RPGRIP1_Y826_R827L] was tested, and the SH2 binding enrichment was 0.542. TDGIAYEFRVT was tested, and the SH2 binding enrichment was 0.449. LSRDVYEEDSF [RET_Y900_YF] gave an SH2 binding enrichment of 0.769. TVLEHYRRTHC [MYBPC3_Y1119] was tested, and the SH2 binding enrichment was 0.713. CTTIHKNYMCN [TP53_Y234_Y234K] showed an SH2 binding enrichment of 0.866. Sequence NNDLCYWVPEL [IARS1_Y434] has an SH2 binding enrichment of 0.514. Sequence SNNYIYTTLGV [FAM83B_Y639_K640T] has an SH2 binding enrichment of 0.725. For QLLIKYPPEEV [ZZZ3_Y670], the SH2 binding enrichment was 0.626. KFMVGYEMIAQ [GALT_Y339_L342I] was tested, and the SH2 binding enrichment was 7.36. ALRHYYKLNII [ETV6_Y402] was tested, and the SH2 binding enrichment was 1.35.

The sequences below were run against SHP2-C SH2 in the same assay as above.
GFPVHYTDVSN [DNMT3B_Y815] was tested, and the SH2 binding enrichment was 7.67. RRGTRYMSSRP [RPL21_Y13_F15S] was tested, and the SH2 binding enrichment was 0.533. Sequence VIECSYTSADG [DHCR7_Y382] has an SH2 binding enrichment of 0.601. In the case of SARFHYLMAEK [LDHB_Y173_R172H], the SH2 binding enrichment is reported as 0.601. In the case of EEESCYILHSS [PATJ_Y783], the SH2 binding enrichment is reported as 0.79. For QSKGIYFVQLE [MGAT4B_Y262_YF], the SH2 binding enrichment was 0.854. In the case of PMQMPYDSRWE [PDGFRA_Y582_L580M], the SH2 binding enrichment is reported as 0.721. Work on FQEKGYNKELR [CHRND_Y38] yielded an SH2 binding enrichment of 0.882. Work on KAIMTYVPSFY [ACTN4_Y260_S262P] yielded an SH2 binding enrichment of 1.03. In the case of KVNKIYYPDFI [LIG3_Y767], the SH2 binding enrichment is reported as 0.695. With FSDPSYVKQME [CDC5L_Y464_YF] the SH2 binding enrichment was 0.892. ADFPDCKFRPR [SOX11_Y116_Y116C_YF] gave an SH2 binding enrichment of 0.996. ETPSEYLEIVR [TMEM130_Y412] was tested, and the SH2 binding enrichment was 0.573. For FPLELYERVRM [PRKCG_Y312_YF], the SH2 binding enrichment was 0.722. FDFKKYGKGLR [ZNF445_Y433_YF] was tested, and the SH2 binding enrichment was 0.751. With WISNRSLDFSS [PRPH2_Y184_Y184S] the SH2 binding enrichment was 0.529. With TFWKKYRTFWK [CCDC70_Y125] the SH2 binding enrichment was 1.18. Sequence LQTYHYHGHSM [PDHA1_Y289_R288H] has an SH2 binding enrichment of 2. DVMDFYKTLRG [NR3C1_Y30] was tested, and the SH2 binding enrichment was 0.537. Sequence AEKPKYQINNI [TJP1_Y1602] has an SH2 binding enrichment of 0.766. With HSFQCYGRNEA [ENTPD3_Y262] the SH2 binding enrichment was 0.82. With SSVAGYACLAF [MVD_Y131_A128V_YF] the SH2 binding enrichment was 10.7. With MTYMFYRENLR [NLRP14_Y443_V441M] the SH2 binding enrichment was 0.749. For SPYAVYLFFTF [RPGRIP1_Y826_R827L], the SH2 binding enrichment was 0.71. Work on TDGIAYEFRVT yielded an SH2 binding enrichment of 0.575. Sequence LSRDVYEEDSF [RET_Y900_YF] has an SH2 binding enrichment of 0.805. With TVLEHYRRTHC [MYBPC3_Y1119] the SH2 binding enrichment was 1.16. Work on CTTIHKNYMCN [TP53_Y234_Y234K] yielded an SH2 binding enrichment of 1.16. With NNDLCYWVPEL [IARS1_Y434] the SH2 binding enrichment was 0.791. With SNNYIYTTLGV [FAM83B_Y639_K640T] the SH2 binding enrichment was 2.71. QLLIKYPPEEV [ZZZ3_Y670] showed an SH2 binding enrichment of 1. For KFMVGYEMIAQ [GALT_Y339_L342I], the SH2 binding enrichment was 0.884. ALRHYYKLNII [ETV6_Y402] gave an SH2 binding enrichment of 1.42.

These sequences were tested against Grb2 SH2 (UniProt P62993) in the same assay as above.
Grb2 SH2, sequence (P62993 whole entry, looked up): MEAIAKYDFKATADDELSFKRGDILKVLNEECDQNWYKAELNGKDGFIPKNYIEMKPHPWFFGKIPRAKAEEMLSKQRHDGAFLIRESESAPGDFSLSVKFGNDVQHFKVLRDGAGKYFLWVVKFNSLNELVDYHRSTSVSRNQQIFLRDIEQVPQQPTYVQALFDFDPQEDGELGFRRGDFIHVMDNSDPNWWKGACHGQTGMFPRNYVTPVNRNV
GFPVHYTDVSN [DNMT3B_Y815] was tested, and the SH2 binding enrichment was 0.793. With RRGTRYMSSRP [RPL21_Y13_F15S] the SH2 binding enrichment was 0.964. With VIECSYTSADG [DHCR7_Y382] the SH2 binding enrichment was 0.837. With SARFHYLMAEK [LDHB_Y173_R172H] the SH2 binding enrichment was 0.957. In the case of EEESCYILHSS [PATJ_Y783], the SH2 binding enrichment is reported as 0.944. QSKGIYFVQLE [MGAT4B_Y262_YF] was tested, and the SH2 binding enrichment was 0.96. Work on PMQMPYDSRWE [PDGFRA_Y582_L580M] yielded an SH2 binding enrichment of 0.615. With FQEKGYNKELR [CHRND_Y38] the SH2 binding enrichment was 0.814. KAIMTYVPSFY [ACTN4_Y260_S262P] showed an SH2 binding enrichment of 0.818. Work on KVNKIYYPDFI [LIG3_Y767] yielded an SH2 binding enrichment of 0.834. In the case of FSDPSYVKQME [CDC5L_Y464_YF], the SH2 binding enrichment is reported as 0.883. For ADFPDCKFRPR [SOX11_Y116_Y116C_YF], the SH2 binding enrichment was 1.05. ETPSEYLEIVR [TMEM130_Y412] was tested, and the SH2 binding enrichment was 0.605. Sequence FPLELYERVRM [PRKCG_Y312_YF] has an SH2 binding enrichment of 0.832. FDFKKYGKGLR [ZNF445_Y433_YF] gave an SH2 binding enrichment of 1.19. Work on WISNRSLDFSS [PRPH2_Y184_Y184S] yielded an SH2 binding enrichment of 0.745. In the case of TFWKKYRTFWK [CCDC70_Y125], the SH2 binding enrichment is reported as 0.843. With LQTYHYHGHSM [PDHA1_Y289_R288H] the SH2 binding enrichment was 1.36. With DVMDFYKTLRG [NR3C1_Y30] the SH2 binding enrichment was 0.718. With AEKPKYQINNI [TJP1_Y1602] the SH2 binding enrichment was 0.906. With HSFQCYGRNEA [ENTPD3_Y262] the SH2 binding enrichment was 0.945. Work on SSVAGYACLAF [MVD_Y131_A128V_YF] yielded an SH2 binding enrichment of 0.834. For MTYMFYRENLR [NLRP14_Y443_V441M], the SH2 binding enrichment was 1.15. For SPYAVYLFFTF [RPGRIP1_Y826_R827L], the SH2 binding enrichment was 1.07. TDGIAYEFRVT was tested, and the SH2 binding enrichment was 0.577. In the case of LSRDVYEEDSF [RET_Y900_YF], the SH2 binding enrichment is reported as 0.778. Work on TVLEHYRRTHC [MYBPC3_Y1119] yielded an SH2 binding enrichment of 1.05. Sequence CTTIHKNYMCN [TP53_Y234_Y234K] has an SH2 binding enrichment of 1.05. Sequence NNDLCYWVPEL [IARS1_Y434] has an SH2 binding enrichment of 0.813. SNNYIYTTLGV [FAM83B_Y639_K640T] showed an SH2 binding enrichment of 0.883. With QLLIKYPPEEV [ZZZ3_Y670] the SH2 binding enrichment was 0.848. KFMVGYEMIAQ [GALT_Y339_L342I] showed an SH2 binding enrichment of 0.914. ALRHYYKLNII [ETV6_Y402] was tested, and the SH2 binding enrichment was 1.54.

These sequences were tested against EPHB1 (UniProt P54762) (assay: phosphorylation enrichment, bacterial display (enrichment ratio); higher = better substrate or ligand; peptides without Tyr show the background).
EPHB1, sequence (P54762 whole entry, looked up): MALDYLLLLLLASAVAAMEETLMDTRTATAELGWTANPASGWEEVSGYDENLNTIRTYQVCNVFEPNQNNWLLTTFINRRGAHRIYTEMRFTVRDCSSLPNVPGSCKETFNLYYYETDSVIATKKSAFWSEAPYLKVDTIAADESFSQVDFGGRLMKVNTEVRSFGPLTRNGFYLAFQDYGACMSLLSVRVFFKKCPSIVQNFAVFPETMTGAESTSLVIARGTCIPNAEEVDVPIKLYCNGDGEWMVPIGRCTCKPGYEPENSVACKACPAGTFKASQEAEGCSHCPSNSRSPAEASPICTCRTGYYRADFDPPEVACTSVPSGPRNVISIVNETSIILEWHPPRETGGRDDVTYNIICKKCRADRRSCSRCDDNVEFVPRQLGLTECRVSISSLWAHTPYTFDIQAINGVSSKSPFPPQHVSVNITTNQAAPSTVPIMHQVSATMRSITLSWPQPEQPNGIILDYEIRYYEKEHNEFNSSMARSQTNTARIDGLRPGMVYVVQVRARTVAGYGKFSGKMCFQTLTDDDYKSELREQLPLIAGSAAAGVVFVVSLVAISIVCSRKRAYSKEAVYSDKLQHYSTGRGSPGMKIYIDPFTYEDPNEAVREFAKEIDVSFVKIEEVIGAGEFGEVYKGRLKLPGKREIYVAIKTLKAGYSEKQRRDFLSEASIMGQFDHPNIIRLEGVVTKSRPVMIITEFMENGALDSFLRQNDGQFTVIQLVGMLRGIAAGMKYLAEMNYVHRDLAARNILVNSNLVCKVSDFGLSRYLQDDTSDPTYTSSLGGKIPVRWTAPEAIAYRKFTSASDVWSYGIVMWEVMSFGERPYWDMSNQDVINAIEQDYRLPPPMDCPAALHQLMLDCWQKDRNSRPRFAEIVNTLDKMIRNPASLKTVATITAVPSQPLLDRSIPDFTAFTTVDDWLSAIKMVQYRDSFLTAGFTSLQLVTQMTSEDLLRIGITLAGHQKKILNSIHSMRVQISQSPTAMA
In the case of GFPVHYTDVSN [DNMT3B_Y815], the phosphorylation enrichment is reported as 0.477. RRGTRYMSSRP [RPL21_Y13_F15S] gave a phosphorylation enrichment of 0.481. Work on VIECSYTSADG [DHCR7_Y382] yielded a phosphorylation enrichment of 0.524. Sequence SARFHYLMAEK [LDHB_Y173_R172H] has a phosphorylation enrichment of 0.463. EEESCYILHSS [PATJ_Y783] was tested, and the phosphorylation enrichment was 0.637. QSKGIYFVQLE [MGAT4B_Y262_YF] gave a phosphorylation enrichment of 0.972. Sequence PMQMPYDSRWE [PDGFRA_Y582_L580M] has a phosphorylation enrichment of 0.835. FQEKGYNKELR [CHRND_Y38] was tested, and the phosphorylation enrichment was 0.45. KAIMTYVPSFY [ACTN4_Y260_S262P] showed a phosphorylation enrichment of 0.413. In the case of KVNKIYYPDFI [LIG3_Y767], the phosphorylation enrichment is reported as 0.536. Work on FSDPSYVKQME [CDC5L_Y464_YF] yielded a phosphorylation enrichment of 0.476. Work on ADFPDCKFRPR [SOX11_Y116_Y116C_YF] yielded a phosphorylation enrichment of 0.488. Work on ETPSEYLEIVR [TMEM130_Y412] yielded a phosphorylation enrichment of 0.848. FPLELYERVRM [PRKCG_Y312_YF] was tested, and the phosphorylation enrichment was 1.94. With FDFKKYGKGLR [ZNF445_Y433_YF] the phosphorylation enrichment was 0.426. Work on WISNRSLDFSS [PRPH2_Y184_Y184S] yielded a phosphorylation enrichment of 0.452. With TFWKKYRTFWK [CCDC70_Y125] the phosphorylation enrichment was 0.472. LQTYHYHGHSM [PDHA1_Y289_R288H] was tested, and the phosphorylation enrichment was 0.689. For DVMDFYKTLRG [NR3C1_Y30], the phosphorylation enrichment was 0.404. Work on AEKPKYQINNI [TJP1_Y1602] yielded a phosphorylation enrichment of 0.366. HSFQCYGRNEA [ENTPD3_Y262] gave a phosphorylation enrichment of 0.875. For SSVAGYACLAF [MVD_Y131_A128V_YF], the phosphorylation enrichment was 0.562. In the case of MTYMFYRENLR [NLRP14_Y443_V441M], the phosphorylation enrichment is reported as 0.948. For SPYAVYLFFTF [RPGRIP1_Y826_R827L], the phosphorylation enrichment was 0.47. Work on TDGIAYEFRVT yielded a phosphorylation enrichment of 0.608. In the case of LSRDVYEEDSF [RET_Y900_YF], the phosphorylation enrichment is reported as 1.07. TVLEHYRRTHC [MYBPC3_Y1119] gave a phosphorylation enrichment of 0.468. For CTTIHKNYMCN [TP53_Y234_Y234K], the phosphorylation enrichment was 0.515. With NNDLCYWVPEL [IARS1_Y434] the phosphorylation enrichment was 4.43. Work on SNNYIYTTLGV [FAM83B_Y639_K640T] yielded a phosphorylation enrichment of 7.5. For QLLIKYPPEEV [ZZZ3_Y670], the phosphorylation enrichment was 0.898. KFMVGYEMIAQ [GALT_Y339_L342I] showed a phosphorylation enrichment of 0.58. With ALRHYYKLNII [ETV6_Y402] the phosphorylation enrichment was 0.579.
